From patent CN113512113A (THE FIRST AFFILIATED HOSPITAL COLLEGE OF MEDICINE ZHEJIANG …, dated 2021)

Target: SARS-Cov-2的生物素化RBD(NC_045512) (SARS-CoV-2, UniProt P0DTC2 319-541)

B1: CZ-D7 (antibody, V domains shown)
VH: QVQLVQSGAEVKTPGSSVKVSCKASGGSFSNYAISWVRQAPGQGLEWMGRIIATLGISNYAQKFQGRVTMTADKSTSTAYMELSSLRSEDTAVYYCASPITNFGVLIEVDAFHIWGQGTMVTVSS
VL: EIVLTQSPFTLSLSPGERATLSCGASQSVSSSYLAWYQQKPGLAPRLLIYDGSSRATDIPDRFSGSGSGTDFTLTISRLEPEDFAMYYCQQYSTSPLTFGGGTKVEIKR
**Q.** With B1 as the binder, how does the Kd read?
**A.** Its Kd is < 0.001 nM.

B2: SW-B1 (antibody, V domains shown)
VH: QVQLVQSGAEVKKPGASVKVSCTASGDTFTTYYMNWMRQAPGQGLEWMGIINPSGGSTSYAQKFQGRVTMTRDTSRSTVYMELSSLRSEDTAVYYCATPSLEEAEGGPQLAFDIWGQGTMVTVSS
VL: not shown
**Q.** Which Kd does the source give for B2 here?
**A.** Its Kd is 0.0943 nM.

B3: SW-A9 (antibody, V domains shown)
VH: QMQLVQSGPEVKKPGTSVKVSCKASGFTFTNSAMQWVRQARGQRLEWVGWIVVASGNANSARRFHDRVTITSDMSTSTAYLELSSLRSEDTAVYYCALNHCSNTTCLDGFDIWGQGTMVSVSS
VL: EIVLTQSPVTLSLSPGERATLSCRASQSVRNSLLAWYQQKPGQAPRLLIYAASSRATGIPDRFSGSGSGTDFTLTISRLEPEDFVVYYCQQHGSSPPWTFGQGTKVEFKR
**Q.** For B3, which Kd is on record?
**A.** Its Kd is < 0.001 nM.
